In paper PMC2553570:
Like-named read-outs stand apart in the source and are kept apart here.

Tests used:
Assay in all cases: EMSA
Ku70/80 wild-type [1] = molecular target: T1, Ku70/80 wild-type (human, UniProt P12956;P13010 1-609;1-732)
Ku70DM/80TM [2] = molecular target: T2, Ku70DM/80TM (human, UniProt P12956;P13010 1-609;1-732, K357A;K358A;K233A;K238A;K239A)
Ku70DM/80DM [3] = molecular target: T3, Ku70DM/80DM (human, UniProt P12956;P13010 1-609;1-732, K357A;K358A;K238A;K239A)
Ku70DM/80 [4] = molecular target: T4, Ku70DM/80 (human, UniProt P12956;P13010 1-609;1-732, K358A;Ku70:K357A)
T4 sequence (P12956 whole entry K358A, chain 1 of 2): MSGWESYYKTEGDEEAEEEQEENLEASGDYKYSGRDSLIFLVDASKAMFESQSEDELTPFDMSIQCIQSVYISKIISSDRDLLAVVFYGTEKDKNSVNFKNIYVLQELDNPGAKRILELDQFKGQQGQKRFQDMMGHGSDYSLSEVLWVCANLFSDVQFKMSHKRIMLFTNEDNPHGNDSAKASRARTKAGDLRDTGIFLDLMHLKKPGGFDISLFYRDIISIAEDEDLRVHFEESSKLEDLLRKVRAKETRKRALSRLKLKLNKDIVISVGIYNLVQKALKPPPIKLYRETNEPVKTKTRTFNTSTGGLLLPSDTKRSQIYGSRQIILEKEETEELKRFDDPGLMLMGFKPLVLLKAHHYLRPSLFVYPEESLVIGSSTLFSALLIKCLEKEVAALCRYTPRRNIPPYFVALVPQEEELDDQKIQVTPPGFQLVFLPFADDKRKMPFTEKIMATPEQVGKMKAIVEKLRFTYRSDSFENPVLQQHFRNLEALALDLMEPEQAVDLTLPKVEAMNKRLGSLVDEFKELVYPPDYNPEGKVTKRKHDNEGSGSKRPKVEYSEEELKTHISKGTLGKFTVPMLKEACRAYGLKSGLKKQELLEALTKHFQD
T4 sequence (P13010 whole entry, stated change not applied, chain 2 of 2): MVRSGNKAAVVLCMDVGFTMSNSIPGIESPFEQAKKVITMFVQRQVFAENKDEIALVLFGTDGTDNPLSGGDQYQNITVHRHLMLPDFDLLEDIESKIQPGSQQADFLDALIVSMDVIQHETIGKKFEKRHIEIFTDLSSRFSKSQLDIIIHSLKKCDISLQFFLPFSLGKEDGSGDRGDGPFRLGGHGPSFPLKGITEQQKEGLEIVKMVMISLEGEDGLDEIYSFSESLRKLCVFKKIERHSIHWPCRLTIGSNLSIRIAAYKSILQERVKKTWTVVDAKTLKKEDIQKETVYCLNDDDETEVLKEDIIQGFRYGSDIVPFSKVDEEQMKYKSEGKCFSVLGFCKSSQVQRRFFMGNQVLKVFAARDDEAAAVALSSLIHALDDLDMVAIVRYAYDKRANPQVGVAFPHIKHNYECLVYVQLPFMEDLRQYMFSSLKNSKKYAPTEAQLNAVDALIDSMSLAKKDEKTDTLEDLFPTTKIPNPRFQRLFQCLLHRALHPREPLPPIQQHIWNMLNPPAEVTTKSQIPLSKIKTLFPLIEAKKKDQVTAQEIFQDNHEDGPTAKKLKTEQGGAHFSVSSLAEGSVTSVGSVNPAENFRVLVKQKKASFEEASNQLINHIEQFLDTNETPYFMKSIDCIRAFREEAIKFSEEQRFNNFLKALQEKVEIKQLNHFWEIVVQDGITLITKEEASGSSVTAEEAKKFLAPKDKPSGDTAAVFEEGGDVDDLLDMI

Ku70/80TM [5] = molecular target: T5, Ku70/80TM (human, UniProt P12956;P13010 1-609;1-732, K238A;K239A;Ku80:K233A)
T5 sequence (P12956 whole entry, stated change not applied, chain 1 of 2): as the sequence (P12956 whole entry K358A, chain 1 of 2) above, with A358K counted along it
T5 sequence (P13010 whole entry K238A/K239A, chain 2 of 2): as the sequence (P13010 whole entry, stated change not applied, chain 2 of 2) above, with K238A, K239A counted along it

Ku70DM/80TM [6] = molecular target: T2, Ku70DM/80TM; remark: listed apart in the source
Ku70DM/80DM [7] = molecular target: T3, Ku70DM/80DM; remark: listed apart in the source
Ku70DM/80 [8] = molecular target: T4, Ku70DM/80; remark: listed apart in the source
Ku70/80DM = Ku70/80DM (human, UniProt P12956;P13010 1-609;1-732, K239A;Ku80:K238A)
Chain of Ku70/80DM (P12956 whole entry, stated change not applied, chain 1 of 2): as the sequence (P12956 whole entry K358A, chain 1 of 2) above, with A358K counted along it
Chain of Ku70/80DM (P13010 whole entry K239A, chain 2 of 2): as the sequence (P13010 whole entry, stated change not applied, chain 2 of 2) above, with K239A counted along it

Ku70/80TM [9] = molecular target: T5, Ku70/80TM; remark: listed apart in the source
Ku70/80 wild-type [10] = molecular target: T1, Ku70/80 wild-type; remark: listed apart in the source

Measured: binding result

T3 sequence (P12956 whole entry K357A/K358A, chain 1 of 2): as the sequence (P12956 whole entry K358A, chain 1 of 2) above, with K357A counted along it
T3 sequence (P13010 whole entry K238A/K239A, chain 2 of 2): as the sequence (P13010 whole entry, stated change not applied, chain 2 of 2) above, with K238A, K239A counted along it
T2 sequence (P12956 whole entry K357A/K358A, chain 1 of 2): as the sequence (P12956 whole entry K358A, chain 1 of 2) above, with K357A counted along it
T2 sequence (P13010 whole entry K233A/K238A/K239A, chain 2 of 2): as the sequence (P13010 whole entry, stated change not applied, chain 2 of 2) above, with K233A, K238A, K239A counted along it
T1 sequence (P12956 whole entry, chain 1 of 2): as the sequence (P12956 whole entry K358A, chain 1 of 2) above, with A358K counted along it
T1 sequence (P13010 whole entry, chain 2 of 2): as the sequence (P13010 whole entry, stated change not applied, chain 2 of 2) above

B1: one-Ku duplex with unpaired region (dsDNA)
DNA 1: GTTTTTAGTTTATTGGGCGCG
DNA 2: CGCGCCCAGCTTTCCCAGCTAATAAACTAAAAAC
binds: Ku70/80 wild-type [1] | Ku70DM/80TM [2] | Ku70DM/80DM [3] | Ku70DM/80 [4] | Ku70/80TM [5]

B2: 48-bp duplex (two-Ku) (dsDNA)
DNA 1: CTGAGAAAACTGTGCGTCTTCGCGGCAATTGAGAGGCATTCCATTCAC
DNA 2: GTGAATGGAATGCCTCTCAATTGCCGCGAAGACGCACAGTTTTCTCAG
binds: Ku70DM/80TM [6] | Ku70DM/80DM [7] | Ku70DM/80 [8] | Ku70/80DM | Ku70/80TM [9] | Ku70/80 wild-type [10]
